Measured values taken from US20260232732A1 (FUNDACI INSTITUT DE RECERCA CONTRA LA LEUC MIA JOSEP …, published 2026).
Where no end group is shown, it is not given here. The star is where a group is joined. Biotin = O=C1N[C@H]2[C@H](CS[C@H]2CCCCC(=O)*)N1

Legend:
[1] = biological target: T1, biotin-peptide SSMEDYVNFN (human); experiment: ELISA biotin-peptide; scFv 0.3125 ug/mL; repI
T1 peptide: Biotin-SSMEDYVNFN
Procedure: The peptides were synthesized naked or with a N-terminal Biotin modification with a purity of >98%. All four scFvs were verified by ELISA that can be detected with anti-His antibodies. ELISA was performed for scFv-peptide binding validation. Briefly, naked peptides were coated (50 μg/mL) in 0.58M carbonate-bicarbonate buffer pH9.5, 100 μL/well, 4° C. O/N. Then after blocking (3% BSA-PBS, 300 μL/well 37° C. 1.5 h) and washing (PBS+Tween-20 0.05% v/v (0.05% PBST), wells were incubated with each purified scFv antibody at concentration of 1 μg/mL in PBS at 37° C. 1 h. After washing (0.05% PBST), wells were incubated with secondary antibodies (goat anti-His IgG-HRP) in PBS, 37° C., 30 min. After washing, and incubation with TMB substrate, reactions were stopped with 2M HCl and reading was quantified at OD450.
ELISA with biotin-conjugated peptides (5 μg/mL) was performed very similar to described above with minor modifications.
A full curve ELISA was performed for each positive scFv/biotin-peptide pair in order to confirm previous results. Tables 15-17 show ELISA results of the dose-dependent full curve for each positive peptide with scFv “CCR9_HUM”, “Comp-2” and “Comp-3”, respectively.

[2] = biological target: T2, Peptide 2-BSA (GSESTSSMED-C conjugated to BSA) (human); experiment: ELISA; Ab 0.0625 ug/mL; repI
T2 peptide: GSESTSSMEDC(BSA)
Procedure: (§1) In brief, plates with each non-conjugated peptide (50 μg/mL) or BSA-conjugated peptide (5 μg/mL) were coated in 0.58M carbonate-bicarbonate buffer pH9.5, 100 μL/well, at 4° C. […] After washing, wells were incubated with the 3, 3′,5,5′-Tetramethylbenzidine (TMB) HRP substrate and reactions were stopped with 2M HCl and OD450 was recorded.

[3] = biological target: T3, Peptide 3, non-conjugated (SSMEDYVNFN-C) (human); experiment: ELISA; Ab 0.0625 ug/mL; repI
T3 construct: With the extra C-terminal Cys
T3 peptide: SSMEDYVNFNC
Procedure: as §1

[4] = biological target: T4, Peptide 4, non-conjugated (SMEDYVNFNF-C) (human); experiment: ELISA; Ab 0.0625 ug/mL; repI
T4 construct: With the extra C-terminal Cys
T4 peptide: SMEDYVNFNFC
Procedure: as §1

[5] = biological target: T5, Peptide 1-BSA (MADDYGSEST-C conjugated to BSA) (human); experiment: ELISA; Ab 0.0625 ug/mL; repI
T5 peptide: MADDYGSESTC(BSA)
Procedure: as §1

[6] = biological target: T6, Peptide 2, non-conjugated (GSESTSSMED-C) (human); experiment: ELISA; Ab 0.0625 ug/mL; repI
T6 construct: With the extra C-terminal Cys
T6 peptide: GSESTSSMEDC
Procedure: as §1

[7] = biological target: T7, Peptide 4-BSA (SMEDYVNFNF-C conjugated to BSA) (human); experiment: ELISA; Ab 0.0625 ug/mL; repI
T7 peptide: SMEDYVNFNFC(BSA)
Procedure: as §1

[8] = biological target: T8, BSA (negative control coating) (bovine, UniProt P02769 25-607); experiment: ELISA; Ab 0.0625 ug/mL; repI
T8 construct: also called Negative control BSA
Procedure: as §1

[9] = biological target: T9, Peptide 1, non-conjugated (MADDYGSEST-C) (human); experiment: ELISA; Ab 0.0625 ug/mL; repI
T9 construct: With the extra C-terminal Cys
T9 peptide: MADDYGSESTC
Procedure: as §1

[10] = biological target: T10, Peptide 3-BSA (SSMEDYVNFN-C conjugated to BSA) (human); experiment: ELISA; Ab 0.0625 ug/mL; repI
T10 peptide: SSMEDYVNFNC(BSA)
Procedure: as §1

[11] = biological target: T11, antigen peptide-BSA (immunisation peptide #1 MADDYGSESTSSMEDYVNFNF-C conjugated to BSA) (human, extra C-terminal Cys conjugated to BSA); experiment: ELISA; Ab 0.0625 ug/mL; repI
T11 construct: also called Positive control antigen peptide-BSA; MADDY peptide
T11 peptide: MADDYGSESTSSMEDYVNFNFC
Procedure: as §1

[12] = biological target: T2, Peptide 2-BSA (GSESTSSMED-C conjugated …); experiment: ELISA; Ab 1 ug/mL; repI
Procedure: as §1

[13] = biological target: T3, Peptide 3, non-conjugated (SSMEDYVNFN-C); experiment: ELISA; Ab 1 ug/mL; repI
Procedure: as §1

[14] = biological target: T4, Peptide 4, non-conjugated (SMEDYVNFNF-C); experiment: ELISA; Ab 1 ug/mL; repI
Procedure: as §1

[15] = biological target: T5, Peptide 1-BSA (MADDYGSEST-C conjugated …); experiment: ELISA; Ab 1 ug/mL; repI
Procedure: as §1

[16] = biological target: T6, Peptide 2, non-conjugated (GSESTSSMED-C); experiment: ELISA; Ab 1 ug/mL; repI
Procedure: as §1

[17] = biological target: T7, Peptide 4-BSA (SMEDYVNFNF-C conjugated …); experiment: ELISA; Ab 1 ug/mL; repI
Procedure: as §1

[18] = biological target: T8, BSA (negative control coating); experiment: ELISA; Ab 1 ug/mL; repI
Procedure: as §1

[19] = biological target: T9, Peptide 1, non-conjugated (MADDYGSEST-C); experiment: ELISA; Ab 1 ug/mL; repI
Procedure: as §1

[20] = biological target: T10, Peptide 3-BSA (SSMEDYVNFN-C conjugated …); experiment: ELISA; Ab 1 ug/mL; repI
Procedure: as §1

[21] = biological target: T11, antigen peptide-BSA (immunisation …); experiment: ELISA; Ab 1 ug/mL; repI
Procedure: as §1

[22] = biological target: T2, Peptide 2-BSA (GSESTSSMED-C conjugated …); experiment: ELISA; Ab 0.03125 ug/mL; repI
Procedure: as §1

[23] = biological target: T4, Peptide 4, non-conjugated (SMEDYVNFNF-C); experiment: ELISA; Ab 0.03125 ug/mL; repI
Procedure: as §1

[24] = biological target: T9, Peptide 1, non-conjugated (MADDYGSEST-C); experiment: ELISA; Ab 0.03125 ug/mL; repI
Procedure: as §1

[25] = biological target: T10, Peptide 3-BSA (SSMEDYVNFN-C conjugated …); experiment: ELISA; Ab 0.03125 ug/mL; repI
Procedure: as §1

T8 sequence (P02769 25-607 limits assumed): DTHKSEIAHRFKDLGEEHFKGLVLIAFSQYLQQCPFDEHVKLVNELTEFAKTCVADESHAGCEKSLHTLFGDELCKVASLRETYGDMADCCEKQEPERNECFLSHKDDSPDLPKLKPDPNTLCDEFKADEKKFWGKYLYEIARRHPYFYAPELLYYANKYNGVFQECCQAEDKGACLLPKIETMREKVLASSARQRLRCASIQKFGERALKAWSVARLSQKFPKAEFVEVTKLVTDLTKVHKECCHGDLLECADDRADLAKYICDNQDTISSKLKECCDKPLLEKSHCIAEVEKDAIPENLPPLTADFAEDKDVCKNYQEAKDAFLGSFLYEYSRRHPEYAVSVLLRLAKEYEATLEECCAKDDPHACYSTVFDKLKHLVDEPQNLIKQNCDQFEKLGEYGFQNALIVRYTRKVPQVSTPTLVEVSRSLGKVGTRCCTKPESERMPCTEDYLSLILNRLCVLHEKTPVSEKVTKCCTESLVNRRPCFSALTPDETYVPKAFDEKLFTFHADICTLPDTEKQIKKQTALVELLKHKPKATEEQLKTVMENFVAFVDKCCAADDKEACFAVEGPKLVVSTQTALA

B1: CCR9_HUM2 scFv (humanized anti-CCR9 scFv, SEQ ID NO: 17 with C-terminal 6xHis tag) (scFv)
scFv: QVQLVQSGAEVKKPGASVKVSCTASGYSFTDYIIYWVKQAHGQSLEWMGYIDPNNYNTRYSQKFQGKVTITVDKSSTSAYMELNSLTSDDTAVYYCARDVYWGQGTTVTVSSGGGGSGGGGSGGGGSGGGGSDVVMTQTPLSLSVTPGQPASISCRSSQSLVHSNGKTYLQWYLQKPGQSPKLLIYKVSNRFSGVPDRFSGSGSGTDFTLKISRVEAEDVGVYFCAQSTHVWTFGGGTKVEIKRAHHHHHH
OD450 [1]: 1.69 OD

B2: anti-CCR9 antibody clone 115 (murine, from hybridoma #115) (antibody, V domains shown)
VH: QVQLKQSGPELVKPGTSVRVSCTASGYSFTDYIIYWVKQSHGRSLEWIGYIDPNNYNTRYSQKFKGKATLTVDKSSTSAFMHLNSLTSDDSAVYYCARDVYWGQGTTLTVSS
VL: DVVMTQTPLSLTVSLGDQASISCRSSQSLVHSNGKTYLQWYLQKPGQSPKLLIYKVSNRFSGVPDRFSGSGSGTDFTLKISRVEAEDLGVYFCAQSTHVWTFGGGTKLEIKR
notes: Mouse IgG1
OD450 [2]: 0.01 OD | OD450 [3]: 1.83 OD | OD450 [4]: 1.14 OD | OD450 [5]: 0.01 OD | OD450 [6]: 0.01 OD | OD450 [7]: 1.98 OD | OD450 [8]: 0.01 OD | OD450 [9]: 0.01 OD | OD450 [10]: 1.88 OD | OD450 [11]: 1.84 OD | OD450 [12]: 0.03 OD | OD450 [13]: 2.06 OD | OD450 [14]: 2.49 OD | OD450 [15]: 0.04 OD | OD450 [16]: 0.03 OD | OD450 [17]: 2.73 OD | OD450 [18]: 0.02 OD | OD450 [19]: 0.02 OD | OD450 [20]: 2.17 OD | OD450 [21]: 2.58 OD | OD450 [22]: 0.01 OD | OD450 [23]: 0.67 OD | OD450 [24]: 0.01 OD | OD450 [25]: 1.66 OD
